Read-outs that look alike come from different tables or passages of the source.
T1: cynomolgus monkey Siglec15-his protein (cynomolgus monkey)
T1 construct: In house made; also called Cynomolgus Siglec15-his; cynomolgus Siglec15
T1 chain: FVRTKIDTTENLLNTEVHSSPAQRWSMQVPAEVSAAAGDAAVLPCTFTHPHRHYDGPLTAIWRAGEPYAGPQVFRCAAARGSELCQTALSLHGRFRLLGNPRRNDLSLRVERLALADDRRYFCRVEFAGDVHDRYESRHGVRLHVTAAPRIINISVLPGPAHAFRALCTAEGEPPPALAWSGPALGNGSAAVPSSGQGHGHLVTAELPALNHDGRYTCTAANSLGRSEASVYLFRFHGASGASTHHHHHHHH

T2: recombinant human Siglec15-his protein (human, UniProt Q6ZMC9 20-263)
T2 construct: In house made; Biotin-labeled in the capture ELISA
T2 sequence: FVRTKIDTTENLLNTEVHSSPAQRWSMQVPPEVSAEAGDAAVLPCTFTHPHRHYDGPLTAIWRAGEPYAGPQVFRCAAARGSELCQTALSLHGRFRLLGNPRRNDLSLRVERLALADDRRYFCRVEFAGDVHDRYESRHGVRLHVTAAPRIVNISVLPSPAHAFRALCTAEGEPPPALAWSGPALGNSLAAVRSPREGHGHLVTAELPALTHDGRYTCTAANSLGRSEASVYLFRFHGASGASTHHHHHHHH


How the values were obtained:
[1] = biological target: T1, cynomolgus monkey Siglec15-his protein; experiment: SPR Biacore T200, antibody captured by anti-human IgG, antigen as analyte, 1:1 fit
Experimental: (§1) Briefly, goat anti-human IgG (GE healthcare, Cat #BR100839, Human Antibody Capture Kit) was covalently linked to a CM5 chip (carboxy methyl dextran coated chip, GE healthcare, Cat #BR-1005-30) via primary amines, using a standard amine coupling kit provided by Biacore (GE healthcare, Pittsburgh, Pa., USA). Un-reacted moieties on the biosensor surface were blocked with ethanolamine. Then, purified anti-Siglec15 antibodies of the disclosure at the concentration of 13.3 nM and an anti-Siglec15 benchmark (ch5G12, also referred to as BM, see U.S. Patent Publication No. 20190202912A1, amino acid sequences of the heavy chain and light chain set forth in SEQ ID NOs: 24 and 25, respectively) at 13.3 nM, were respectively flowed onto the chip at a flow rate of 10 μL/min. Then, serially diluted recombinant human Siglec15-his protein (in house made, amino acid sequence set forth in SEQ ID NO: 20) or cynomolgus monkey Siglec15-his protein (in house made, amino acid sequence set forth in SEQ ID NO: 21), 2-fold serial dilution in HBS-EP⁺ buffer starting at 80 nM, were respectively flown onto the chip at a flow rate of 30 μL/min. The antigen-antibody association kinetics was followed for 2 minutes and the dissociation kinetics was followed for 10 minutes. The association and dissociation curves were fit to a 1:1 Langmuir binding model using BIAcore evaluation software.

[2] = biological target: T2, recombinant human Siglec15-his protein; experiment: as above
Experimental: as §1

[3] = biological target: T1, cynomolgus monkey Siglec15-his protein; experiment: as above
Experimental: as §1

[4] = biological target: T2, recombinant human Siglec15-his protein; experiment: as above; remark: listed apart in the source
Experimental: as §1

[5] = biological target: T2, recombinant human Siglec15-his protein; experiment: capture ELISA, captured antibody, biotin-labeled human Siglec15-his in solution
Experimental: Briefly, 96-well plates were coated with 100 μl of 2 μg/ml AffiniPure Goat Anti-Human IgG F(ab′)₂ fragment specific (Jackson Immuno Research, Cat #109-005-097) in PBS for 2 hours at 37° C. Plates were washed once with wash buffer (PBS+0.05% v/v Tween-20, PBST) and then blocked with 200 μl blocking buffer (5% w/v non-fatty milk in PBST) overnight at 4° C. Plates were washed 4 times and respectively incubated with 100 μl serially diluted anti-Siglec15 antibodies of the disclosure, the benchmark and hIgG (human immunoglobulin (pH4) for intravenous injection, Hualan Biological Engineering Inc.), 5-fold dilution in 2.5% w/v non-fatty milk in PBST starting at 66.7 nM, for 40 minutes at 37° C., and then washed 4 times again. Plates containing captured antibodies were incubated with 100 μl biotin-labeled human Siglec15-his protein (in house made with SEQ ID NO: 20, 145 ng/ml in 2.5% w/v non-fatty milk in PBST) for 40 minutes at 37° C., washed 4 times, and incubated with streptavidin conjugated HRP (1:10000 dilution in PBST, Jackson Immuno Research, Cat #016-030-084, 100 μl/well) for 40 minutes at 37° C. After a final wash, plates were incubated with 100 μl/well ELISA substrate TMB (Innoreagents, Cat #TMB-S-002). The reaction was stopped in 4 minutes at room temperature with 50 μl/well 1M H₂SO₄, and the absorbance of each well was read on a microplate reader using dual wavelength mode with 450 nm for TMB and 630 nm as the reference wavelength, then the OD (450-630) values were plotted against antibody concentration. Data was analyzed using Graphpad Prism software and EC₅₀ values were reported.

[6] = biological target: T1, cynomolgus monkey Siglec15-his protein; experiment: SPR Biacore T200, antibody captured by anti-mouse IgG, antigen as analyte, 1:1 fit
Experimental: Briefly, goat anti-mouse IgG (GE healthcare, Cat #BR100838, Mouse Antibody Capture Kit) was covalently linked to a CM5 chip (carboxy methyl dextran coated chip from GE healthcare, Cat #BR100530) via primary amines using a standard amine coupling kit (GE healthcare, Pittsburgh, Pa., USA) provided by Biacore. Un-reacted moieties on the biosensor surface were blocked with ethanolamine. The purified mouse anti-Siglec15 antibodies of the disclosure at the concentration of 13.3 nM, were respectively flowed onto the chip at a flow rate of 10 μL/min. Then, serially diluted human Siglec15-his protein (in house made, amino acid sequence set forth in SEQ ID NO: 20), cynomolgus monkey Siglec15-his protein (in house made, amino acid sequence set forth in SEQ ID NO: 21), or mouse Siglec15-his protein (in house made, amino acid sequence set forth in SEQ ID NO: 22), 2-fold dilution in HBS-EP⁺ buffer (provided by Biacore) starting at 80 nM, were flowed onto the chip at a flow rate of 30 μL/min. The antigen-antibody association kinetics was followed for 2 minutes and the dissociation kinetics was followed for 10 minutes. The association and dissociation curves were fit to a 1:1 Langmuir binding model using BIAcore evaluation software.

Row | Binder | Kd [1] [nM] | koff [1] [s⁻¹] | kon [1] [M⁻¹ s⁻¹] | Kd [2] [nM] | koff [2] [s⁻¹] | kon [2] [M⁻¹ s⁻¹] | Kd [3] [nM] | koff [3] [s⁻¹] | kon [3] [M⁻¹ s⁻¹] | Kd [4] [nM] | koff [4] [s⁻¹] | kon [4] [M⁻¹ s⁻¹] | EC50 [5] [nM] | Kd [6] [nM] | koff [6] [s⁻¹] | kon [6] [M⁻¹ s⁻¹]
1 | A1E10G7H9 (antibody, V domains shown, Fully human antibody from transgenic mouse hybridoma) VH: QVQLQESGPGLVKPSGTLSLTCAVSGGSISSSNWWHWVRQPPGKGLEWIGEIYHSGNTNYKPSLKSRVTISVDKSKNQFSLKLSSVTAADTAVYYCARDEGNGWSNAFDIWGQGTMVTVSS VL: ENVLTQSPGTLSLSPGERVTLSCRASQSVSSSYLAWYQQKPGQAPRFLIYGASGGATGIPDRFSGSGSGTDFTLTISRLEPEDFAVYYCQQYGSSPITFGQGTRLEIK | 0.0269 | 0.000104 | 3.89e+06 | 0.0139 | 0.0001 | 7.18e+06 |  |  |  |  |  |  |  |  |  | 
2 | A2A5C7E8-2 (antibody, human IgG1, kappa, V domains shown, Variant of A2A5C7E8 modified in VH CDR2 (X1 = E)) VH: EVQLVQSGAEVKKPGESLRISCKGSGYSFTTYWISWVRQMPGKGLEWMGLIDPSESYTNYSPSFQGHVTISTDKSISTAYLQWSSLKASDTAMYYCARGGYYGSEEDYWGQGTLVTVSS VL: EIVLTQSPGTLSLSPGERATLSCRASQSVSSSRLAWFQQKSGQAPRLLIFDASSRATGIPDRFSGSGSGTDFTLTISRLEPEDFAVYYCQQYGSSPRTFGQGTKVEFKR |  |  |  |  |  |  | 0.147 | 0.000167 | 1.14e+06 | 0.164 | 0.000273 | 1.66e+06 |  |  |  | 
3 | B2D7H7A3C1 (antibody, V domains shown, Mouse monoclonal antibody from hybridoma; also called mouse B2D7H7A3C1) VH: QVQLQQSGAELVRPGTSVQMSCKAAGYTFTNYWIGWVKQRPGHGLEWVGDIHPGINYTNNNEKFRGKATLTADTSSNTAYMQLRGLTSDDSAIYYCARVDYDYDGSYIMDYWGQGTSVTVSS VL: QIVLSQSPALLSASPGEKVTMTCRASSSVSYMYWYQQKPGSSPKPWIYATSNLTSGVPARFSGSGSGTSYSLTISRVEAEDAATYFCQQWNSKPWTFGGGSKLEIR |  |  |  |  |  |  |  |  |  |  |  |  | 0.101 | 0.476 | 0.000338 | 711000

The remaining lines, values ahead:

Row | Kd [1] [nM] | koff [1] [s⁻¹] | kon [1] [M⁻¹ s⁻¹] | Kd [2] [nM] | koff [2] [s⁻¹] | kon [2] [M⁻¹ s⁻¹] | Kd [3] [nM] | koff [3] [s⁻¹] | kon [3] [M⁻¹ s⁻¹] | Kd [4] [nM] | koff [4] [s⁻¹] | kon [4] [M⁻¹ s⁻¹] | EC50 [5] [nM] | Kd [6] [nM] | koff [6] [s⁻¹] | kon [6] [M⁻¹ s⁻¹] | Binder
4 | 0.0681 | 8.49e-05 | 1.25e+06 | 0.041 | 9.98e-05 | 2.43e+06 | 0.0704 | 7.96e-05 | 1.13e+06 | 0.0383 | 7.45e-05 | 1.94e+06 |  |  |  |  | A2A5C7E8 (antibody, V domains shown, Fully human antibody from transgenic mouse hybridoma; also called A2A5C7E8-1) VH: EVQLVQSGAEVKKPGESLRISCKGSGYSFTTYWISWVRQMPGKGLEWMGLIDPSDSYTNYSPSFQGHVTISTDKSISTAYLQWSSLKASDTAMYYCARGGYYGSEEDYWGQGTLVTVSS VL: EIVLTQSPGTLSLSPGERATLSCRASQSVSSSRLAWFQQKSGQAPRLLIFDASSRATGIPDRFSGSGSGTDFTLTISRLEPEDFAVYYCQQYGSSPRTFGQGTKVEFK
5 |  |  |  |  |  |  | 0.0751 | 5.32e-05 | 708000 | 0.0396 | 7.46e-05 | 1.88e+06 |  |  |  |  | A2A5C7E8-3 (antibody, human IgG1, kappa, V domains shown, Variant of A2A5C7E8 modified in VH CDR2 (X2 = K)) VH: EVQLVQSGAEVKKPGESLRISCKGSGYSFTTYWISWVRQMPGKGLEWMGLIDPSDSYTNYSPSFKGHVTISTDKSISTAYLQWSSLKASDTAMYYCARGGYYGSEEDYWGQGTLVTVSS VL: EIVLTQSPGTLSLSPGERATLSCRASQSVSSSRLAWFQQKSGQAPRLLIFDASSRATGIPDRFSGSGSGTDFTLTISRLEPEDFAVYYCQQYGSSPRTFGQGTKVEFKR
6 | 0.448 | 0.000788 | 1.76e+06 | 0.265 | 0.00172 | 6.51e+06 | 0.688 | 0.000781 | 1.13e+06 | 0.422 | 0.000955 | 2.27e+06 | 1.64 |  |  |  | anti-Siglec15 benchmark (ch5G12) (antibody, human IgG1, kappa, V domains shown, ch5G12 (US 20190202912A1); also called BM; Siglec15-ch5G9) VH: QVQLQQPGAELVKPGASVKMSCKASGYTFTSYWITWVIQRPGQGLEWIGDIYCGSDTMHYNEKFKNKATLTVDTSSSTAYMQLSSLTSEDSAVYYCARWWDYGSSYDYFDYWGQGTTLTVSS VL: DIKMTQSPSSMYASLGERVTITCKASQDINSYLSWFQQKPGKSPKTLIYRANRLVDGVPSRFSGSGSGQDYSLTISSLEYEDMGIYYCLQYDEFPYTFGGGTKLEIKR
7 |  |  |  |  |  |  |  |  |  |  |  |  | 0.0859 | 0.372 | 0.000371 | 996000 | B2G12H3E8 (antibody, V domains shown, Mouse monoclonal antibody from hybridoma; also called mouse B2G12H3E8) VH: QVQLKQSGAELVRPGTSVQMSCKAVGYTFTNYWIGWVKQRPGHGLEWVGDIHPGINYTNNNEKFRGKATLTADTSSSTAYMQLRGLTSDDSAIYYCARVDYDYDGSYIMDYWGQGTSVTVSS VL: QIVLSQSPALLSASPGEKVTMTCRASSSVSYMYWYQQKPGSSPKPWIYATSNLTSGVPARFSGSGSGTSYSLTISRVEAEDAATYFCQQWNSKPWTFGGGSKLEIR
8 |  |  |  |  |  |  |  |  |  |  |  |  | 0.0937 | 0.405 | 0.000352 | 869000 | B2H2H1H7 (antibody, V domains shown, Mouse monoclonal antibody from hybridoma; also called mouse B2H2H1H7; B2H2H1A7) VH: QVQLQQSGAELVRPGTSVQMSCKAAGYTFTNYWIGWVKQRPGHGLEWVGDIHPGINYTNNNEKFRGKATLTADTSSSTAYMQLRGLTSDDSAIYYCARVDYDYDGSYIMDYWGQGTSVTVSS VL: QIILSQSPALLSASPGEKVTMTCRASSSVSYMYWYQQKPGSSPKPWIYATSNLTSGVPARFSGSGSGTSYSLTISRVEAEDAATYFCQQWNSKPWTFGGGSRLEIR

— US20230106715A1 (BIOSION, published 2023)
